# Measured values reported in PMC7948471, “RSU-1 interaction with prohibitin-2 links cell–extracellular matrix detachment to downregulation of ERK signaling” (The Journal of Biological Chemistry, 2020).
# T1: GST-tagged RSU1 (full length) (human, UniProt Q15404 1-277)
# T1 construct: Ras suppressor 1 (RSU1), human; the ORF inserted into pGEX-5x-1; In solution in the MBP-PHB2 pull-down; as bait in the pull-down of venus-PHB2; also called GST-RSU1; source: E. coli, purified (glutathione-Sepharose 4B)
# T1 sequence (looked up): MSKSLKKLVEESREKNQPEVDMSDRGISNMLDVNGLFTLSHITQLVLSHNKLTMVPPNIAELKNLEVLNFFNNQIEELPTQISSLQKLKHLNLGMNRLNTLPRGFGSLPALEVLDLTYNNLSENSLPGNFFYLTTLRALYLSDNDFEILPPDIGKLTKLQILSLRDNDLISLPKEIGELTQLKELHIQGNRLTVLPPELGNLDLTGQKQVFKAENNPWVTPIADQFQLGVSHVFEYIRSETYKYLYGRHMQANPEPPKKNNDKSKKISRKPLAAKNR
# B1: MBP-tagged PHB2 mutant in which amino acids 150 to 206 are deleted (Δ150–206) (natural protein, human, UniProt Q99623 1-299, looked up)
# chain: MAQNLKDLAGRLPAGPRGMGTALKLLLGAGAVAYGVRESVFTVEGGHRAIFFNRIGGVQQDTILAEGLHFRIPWFQYPIIYDIRARPRKISSPTGSKDLQMVNISLRVLSRPNAQELPSMYQRLGLDYEERVLPSIVNEVLKSVVAKFNAQRAQFLVEKAKQEQRQKIVQAEGEAEAAKMLGEALSKNPGYIKLRKIRAAQNISKTIATSQNRIYLTADNLVLNLQDESFTRGSDSLIKGKK
# notes: source: E. coli, purified (amylose-agarose beads)
# B2: MBP-tagged PHB2 middle region (amino acids 150–206) (domain or fragment, human, UniProt Q99623 150-206, looked up)
# chain: ASQLITQRAQVSLLIRRELTERAKDFSLILDDVAITELSFSREYTAAVEAKQVAQQE
# notes: as for B1
# Target: T1, GST-tagged RSU1 (full length)
# Test: pull-down; GST-RSU1 (10 μg/ml) with amylose beads holding MBP-tagged full-length or deletion forms of PHB2 or MBP; 1% Triton X-100, 10 mM Tris, 100 mM NaH2PO4, pH 8.0; 4 °C, 3 h; Western blot with anti-RSU1
# Conditions: both partners purified
row,Binder,binding result
1,B1,binds
2,B2,binds
